B1: (GGAA)10 G4 RNA 40-mer (structured_RNA)
RNA: GGAAGGAAGGAAGGAAGGAAGGAAGGAAGGAAGGAAGGAA
B2: Alexa 488-(GGAA)10 RNA (structured_RNA)
RNA: GGAAGGAAGGAAGGAAGGAAGGAAGGAAGGAAGGAAGGAA

Columns and labels:
[1] = biological target: PRC2 5-mer WT (EZH2-SUZ12-EED-RBBP4-AEBP2) (UniProt Q15910;Q15022;O75530;Q09028;Q6ZN18 1-746;1-739;1-441;1-425;1-517); assay: EMSA
[2] = biological target: T1, PRC2 5-mer MT (RNA-binding mutant EZH2) (UniProt Q15910;Q15022;O75530;Q09028;Q6ZN18 1-746;1-739;1-441;1-425;1-517, F32A;R34A;D36A;K39A;P489N;R490A;K491A;K492I;K493R;R494S); assay: EMSA
[3] = biological target: T1, PRC2 5-mer MT (RNA-binding mutant EZH2); assay: fluorescence anisotropy
[4] = biological target: PRC2 4-mer MT (RNA-binding mutant EZH2) (UniProt Q15910;Q15022;O75530;Q09028 1-746;1-739;1-441;1-425, F32A;R34A;D36A;K39A;P489N;R490A;K491A;K492I;K493R;R494S); assay: fluorescence anisotropy
Sequence of PRC2 4-mer MT (RNA-binding mutant EZH2) (Q15910 whole entry F32A/R34A/D36A/K39A/P489N/R490A/K491A/K492I/K493R/R494S, chain 1 of 4): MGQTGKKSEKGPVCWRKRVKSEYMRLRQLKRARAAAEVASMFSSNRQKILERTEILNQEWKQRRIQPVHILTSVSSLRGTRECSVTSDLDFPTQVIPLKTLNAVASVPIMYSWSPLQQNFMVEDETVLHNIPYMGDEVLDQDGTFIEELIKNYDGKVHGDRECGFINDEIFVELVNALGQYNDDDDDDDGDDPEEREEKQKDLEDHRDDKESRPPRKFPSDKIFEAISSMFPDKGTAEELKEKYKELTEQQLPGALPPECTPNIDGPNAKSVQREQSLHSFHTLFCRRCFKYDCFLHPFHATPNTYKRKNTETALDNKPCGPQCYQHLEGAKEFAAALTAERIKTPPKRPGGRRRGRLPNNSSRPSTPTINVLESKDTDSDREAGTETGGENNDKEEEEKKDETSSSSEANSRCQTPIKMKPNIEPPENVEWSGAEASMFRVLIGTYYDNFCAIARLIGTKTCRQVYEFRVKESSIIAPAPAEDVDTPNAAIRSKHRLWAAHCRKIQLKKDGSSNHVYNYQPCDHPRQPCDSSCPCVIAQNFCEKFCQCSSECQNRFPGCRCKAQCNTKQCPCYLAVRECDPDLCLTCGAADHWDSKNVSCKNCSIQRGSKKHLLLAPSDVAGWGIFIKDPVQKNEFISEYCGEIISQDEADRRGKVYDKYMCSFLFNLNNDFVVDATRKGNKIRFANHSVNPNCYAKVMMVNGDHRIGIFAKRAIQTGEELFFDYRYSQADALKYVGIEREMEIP
Sequence of PRC2 4-mer MT (RNA-binding mutant EZH2) (Q15022 whole entry, stated change not applied, chain 2 of 4): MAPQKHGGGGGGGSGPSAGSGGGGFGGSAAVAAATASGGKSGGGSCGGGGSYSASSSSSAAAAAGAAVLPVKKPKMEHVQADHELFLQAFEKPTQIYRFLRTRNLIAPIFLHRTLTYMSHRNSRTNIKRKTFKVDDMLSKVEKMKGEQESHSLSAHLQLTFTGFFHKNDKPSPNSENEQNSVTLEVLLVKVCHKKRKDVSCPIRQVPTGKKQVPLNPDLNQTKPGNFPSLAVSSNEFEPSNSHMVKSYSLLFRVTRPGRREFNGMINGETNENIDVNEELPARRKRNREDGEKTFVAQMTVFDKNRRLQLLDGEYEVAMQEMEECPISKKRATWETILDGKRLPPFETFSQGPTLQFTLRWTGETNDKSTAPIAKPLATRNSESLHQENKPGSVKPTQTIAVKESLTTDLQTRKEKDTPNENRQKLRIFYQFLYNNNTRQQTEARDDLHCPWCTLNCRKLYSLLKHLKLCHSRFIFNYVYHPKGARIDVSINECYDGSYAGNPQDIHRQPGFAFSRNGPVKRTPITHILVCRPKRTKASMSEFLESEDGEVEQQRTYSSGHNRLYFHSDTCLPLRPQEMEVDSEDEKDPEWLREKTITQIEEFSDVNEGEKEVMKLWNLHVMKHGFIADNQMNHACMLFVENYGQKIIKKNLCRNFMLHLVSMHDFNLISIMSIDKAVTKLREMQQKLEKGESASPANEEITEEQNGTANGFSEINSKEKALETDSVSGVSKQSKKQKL
Sequence of PRC2 4-mer MT (RNA-binding mutant EZH2) (O75530 whole entry, stated change not applied, chain 3 of 4): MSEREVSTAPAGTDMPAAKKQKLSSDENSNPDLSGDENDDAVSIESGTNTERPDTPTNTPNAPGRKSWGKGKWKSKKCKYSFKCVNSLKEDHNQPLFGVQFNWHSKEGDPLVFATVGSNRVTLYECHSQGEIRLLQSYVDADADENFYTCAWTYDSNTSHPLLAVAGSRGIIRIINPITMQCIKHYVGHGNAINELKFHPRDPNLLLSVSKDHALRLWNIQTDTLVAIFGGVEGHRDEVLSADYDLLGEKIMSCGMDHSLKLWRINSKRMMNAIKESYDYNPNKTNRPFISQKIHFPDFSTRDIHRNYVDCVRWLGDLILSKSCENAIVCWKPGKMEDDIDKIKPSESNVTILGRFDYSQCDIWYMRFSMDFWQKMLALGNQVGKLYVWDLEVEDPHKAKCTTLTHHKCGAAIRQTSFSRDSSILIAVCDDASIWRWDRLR
Sequence of PRC2 4-mer MT (RNA-binding mutant EZH2) (Q09028 whole entry, stated change not applied, chain 4 of 4): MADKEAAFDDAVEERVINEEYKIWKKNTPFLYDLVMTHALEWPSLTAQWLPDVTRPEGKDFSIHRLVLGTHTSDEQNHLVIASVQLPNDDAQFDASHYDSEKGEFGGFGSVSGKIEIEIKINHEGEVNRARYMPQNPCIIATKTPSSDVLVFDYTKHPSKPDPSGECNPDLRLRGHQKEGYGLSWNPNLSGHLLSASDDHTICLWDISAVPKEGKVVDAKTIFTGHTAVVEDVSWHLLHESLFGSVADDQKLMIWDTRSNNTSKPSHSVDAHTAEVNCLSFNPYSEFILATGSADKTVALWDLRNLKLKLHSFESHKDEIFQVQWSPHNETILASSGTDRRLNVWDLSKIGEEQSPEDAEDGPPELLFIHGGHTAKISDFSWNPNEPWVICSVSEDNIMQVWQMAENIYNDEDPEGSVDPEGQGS

Binder	Kd [1]	Kd [2]	binding signal [3]	binding signal [4]
B1	2 nM	12 nM		
B2			30 fold koff increase vs WT	8 fold koff increase vs WT

Reference: article PMC10353856
